Experimental data: patent publication US20250250357A1

How the values were obtained:
[1] = target: human MSLN-R2-his protein (human) (UniProt Q13421); assay: ELISA, coated MSLN-R2
[2] = target: human MSLN-R3-3 polypeptide (human); assay: ELISA, coated antigen; antibody 0.0001 nM
[3] = target: human MSLN-FL-his protein (human) (UniProt Q13421); assay: ELISA on coated antigen, antibody 0.01 nM
[4] = target: human MSLN-R3-3 polypeptide (human); assay: ELISA on coated antigen, antibody 0.01 nM
[5] = target: human MSLN-FL-his protein (human) (UniProt Q13421); assay: ELISA on coated antigen, antibody 0.1 nM
[6] = target: human MSLN-R3-3 polypeptide (human); assay: ELISA on coated antigen, antibody 0.1 nM
[7] = target: human MSLN-R3-3 polypeptide (human); assay: ELISA on coated antigen, antibody 10 nM
[8] = target: human MSLN-R3-3 polypeptide (human); assay: ELISA, coated antigen; no antibody (blank, column 'none')
[9] = target: human MSLN-FL-his protein (human) (UniProt Q13421); assay: ELISA on coated antigen, antibody 1 nM
[10] = target: human MSLN-R3-3 polypeptide (human); assay: ELISA on coated antigen, antibody 1 nM
[11] = target: human MSLN-R3-3 polypeptide (human); assay: ELISA on coated antigen, antibody 0.001 nM
[12] = target: human MSLN-R3-3 polypeptide (human); assay: ELISA on coated antigen, no antibody (column none)
[13] = target: human MSLN-R3-3 polypeptide (human); assay: ELISA, coated antigen; antibody 0.001 nM
[14] = target: human MSLN-FL-his protein (human) (UniProt Q13421); assay: ELISA on coated antigen, no antibody (blank, column 'none')
[15] = target: human MSLN-R3-3 polypeptide (human); assay: ELISA on coated antigen, antibody 0.0001 nM
[16] = target: human MSLN-FL-his protein (human) (UniProt Q13421); assay: ELISA on coated antigen, antibody 100 nM
[17] = target: human MSLN-R3-3 polypeptide (human); assay: ELISA on coated antigen, antibody 100 nM
[18] = target: human MSLN-R2-his protein (human) (UniProt Q13421); assay: ELISA on coated antigen, antibody 0.0002 nM
[19] = target: human MSLN-R3-his protein (human) (UniProt Q13421); assay: ELISA on coated antigen, antibody 0.0002 nM
human MSLN-R3-his protein (human), sequence (Q13421 495-606): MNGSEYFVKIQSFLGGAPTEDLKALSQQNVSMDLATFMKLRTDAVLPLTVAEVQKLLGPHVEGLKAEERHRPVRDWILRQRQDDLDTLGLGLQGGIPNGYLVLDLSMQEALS

[20] = target: human MSLN-R3-3 polypeptide (human); assay: ELISA, coated MSLN-R3-3
[21] = target: human MSLN full-length protein (NCBI: AAH09272.1) on stably transfected CHO-K1 or HEK293T cells (human) (UniProt Q13421); assay: FACS on CHO-K1-hMSLN-2C8 cells; antibody 20 nM
[22] = target: human MSLN full-length protein (NCBI: AAH09272.1) on stably transfected CHO-K1 or HEK293T cells (human) (UniProt Q13421); assay: FACS on CHO-K1-hMSLN-2C8 cells; antibody […]
[23] = target: monkey MSLN full-length protein (NCBI: XP_028696439.1) on HEK293T cells (monkey); assay: FACS on HEK293T-monkey MSLN cells; antibody 0.032 nM
[24] = target: human MSLN-R3-3 polypeptide (human); assay: ELISA; antibody 1 nM
[25] = target: human MSLN full-length protein (NCBI: AAH09272.1) on stably transfected CHO-K1 or HEK293T cells (human) (UniProt Q13421); assay: FACS on CHO-K1-hMSLN-2C8 cells; antibody 0.032 nM
[26] = target: human MSLN protein, endogenously expressed on Hela and OVCAR3 cells (human) (UniProt Q13421); assay: FACS on OVCAR3 cells; antibody 0.032 nM
human MSLN protein, endogenously expressed on Hela and OVCAR3 cells (human), sequence (Q13421 other isoform, or with tags, fused parts or gaps): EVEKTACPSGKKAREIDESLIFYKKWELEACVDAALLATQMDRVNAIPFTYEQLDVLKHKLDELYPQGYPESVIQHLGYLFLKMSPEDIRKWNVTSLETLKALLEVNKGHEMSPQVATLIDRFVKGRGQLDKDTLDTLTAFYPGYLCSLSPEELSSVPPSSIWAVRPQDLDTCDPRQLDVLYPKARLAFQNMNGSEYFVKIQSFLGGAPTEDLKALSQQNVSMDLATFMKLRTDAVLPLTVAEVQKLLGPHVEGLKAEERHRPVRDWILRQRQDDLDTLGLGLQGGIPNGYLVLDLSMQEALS

[27] = target: monkey MSLN full-length protein (NCBI: XP_028696439.1) on HEK293T cells (monkey); assay: FACS on HEK293T-monkey MSLN cells; antibody 0.0064 nM
[28] = target: monkey MSLN full-length protein (NCBI: XP_028696439.1) on HEK293T cells (monkey); assay: FACS on HEK293T-monkey MSLN cells; antibody 0.8 nM
[29] = target: human MSLN protein, endogenously expressed on Hela and OVCAR3 cells (human) (UniProt Q13421); assay: FACS on OVCAR3 cells; antibody 0.00128 nM
[30] = target: human MSLN full-length protein (NCBI: AAH09272.1) on stably transfected CHO-K1 or HEK293T cells (human) (UniProt Q13421); assay: FACS on CHO-K1-hMSLN-2C8 cells; antibody 0.0064 nM
[31] = target: monkey MSLN full-length protein (NCBI: XP_028696439.1) on HEK293T cells (monkey); assay: FACS on HEK293T-monkey MSLN cells; antibody 0.00128 nM
[32] = target: monkey MSLN full-length protein (NCBI: XP_028696439.1) on HEK293T cells (monkey); assay: FACS on HEK293T-monkey MSLN cells; antibody 20 nM
[33] = target: human MSLN protein, endogenously expressed on Hela and OVCAR3 cells (human) (UniProt Q13421); assay: FACS on OVCAR3 cells; antibody 100 nM
[34] = target: human MSLN full-length protein (NCBI: AAH09272.1) on stably transfected CHO-K1 or HEK293T cells (human) (UniProt Q13421); assay: FACS on CHO-K1-hMSLN-2C8 cells; antibody 4 nM
[35] = target: human MSLN full-length protein (NCBI: AAH09272.1) on stably transfected CHO-K1 or HEK293T cells (human) (UniProt Q13421); assay: FACS on CHO-K1-hMSLN-2C8 cells; antibody 0.00128 nM
[36] = target: human MSLN full-length protein (NCBI: AAH09272.1) on stably transfected CHO-K1 or HEK293T cells (human) (UniProt Q13421); assay: FACS on CHO-K1-hMSLN-2C8 cells; antibody 0.8 nM
[37] = target: human MSLN protein, endogenously expressed on Hela and OVCAR3 cells (human) (UniProt Q13421); assay: FACS on OVCAR3 cells; antibody 4 nM
[38] = target: human MSLN full-length protein (NCBI: AAH09272.1) on stably transfected CHO-K1 or HEK293T cells (human) (UniProt Q13421); assay: FACS on CHO-K1-hMSLN-2C8 cells; antibody 100 nM
[39] = target: monkey MSLN full-length protein (NCBI: XP_028696439.1) on HEK293T cells (monkey); assay: FACS on HEK293T-monkey MSLN cells; antibody 100 nM
[40] = target: human MSLN protein, endogenously expressed on Hela and OVCAR3 cells (human) (UniProt Q13421); assay: FACS on OVCAR3 cells; antibody 0.0064 nM
[41] = target: human MSLN protein, endogenously expressed on Hela and OVCAR3 cells (human) (UniProt Q13421); assay: FACS on OVCAR3 cells; antibody […]
[42] = target: human MSLN protein, endogenously expressed on Hela and OVCAR3 cells (human) (UniProt Q13421); assay: FACS on OVCAR3 cells; antibody 20 nM
[43] = target: human MSLN protein, endogenously expressed on Hela and OVCAR3 cells (human) (UniProt Q13421); assay: FACS on OVCAR3 cells; antibody 0.8 nM
[44] = target: monkey MSLN full-length protein (NCBI: XP_028696439.1) on HEK293T cells (monkey); assay: FACS on HEK293T-monkey MSLN cells; antibody 4 nM
[45] = target: monkey MSLN full-length protein (NCBI: XP_028696439.1) on HEK293T cells (monkey); assay: FACS on HEK293T-monkey MSLN cells; antibody […]

human MSLN-FL-his protein (human), sequence (Q13421 other isoform, or with tags, fused parts or gaps): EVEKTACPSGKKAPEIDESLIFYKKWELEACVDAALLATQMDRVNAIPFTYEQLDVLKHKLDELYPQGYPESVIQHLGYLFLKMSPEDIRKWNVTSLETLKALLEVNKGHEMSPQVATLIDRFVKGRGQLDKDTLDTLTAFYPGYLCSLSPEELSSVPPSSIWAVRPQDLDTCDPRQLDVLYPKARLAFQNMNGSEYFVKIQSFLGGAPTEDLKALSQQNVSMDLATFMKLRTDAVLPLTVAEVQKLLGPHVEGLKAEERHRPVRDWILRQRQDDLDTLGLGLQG
human MSLN-R2-his protein (human), sequence (Q13421 other isoform, or with tags, fused parts or gaps): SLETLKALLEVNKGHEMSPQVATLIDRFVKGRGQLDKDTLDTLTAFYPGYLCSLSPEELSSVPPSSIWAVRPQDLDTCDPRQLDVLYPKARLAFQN

Substance: Tab108 (YP218, scFv-hIgG1 Fc) (Fc fusion)
- OD450 at 0.0001 nM [1]: 0.03 OD450

Substance: anti-hel-hIgG1 (antibody)
- OD450 [2]: 0.07 OD450
- OD450 [3]: 0.04 OD
- OD450 [4]: 0.05 OD450
- OD450 [5]: 0.04 OD
- OD450 [6]: 0.05 OD450
- OD450 [7]: 0.05 OD450
- OD450 [8]: 0.07 OD450
- OD450 [9]: 0.04 OD
- OD450 [10]: 0.05 OD450
- OD450 [11]: 0.05 OD450
- OD450 [12]: 0.05 OD450
- OD450 [13]: 0.08 OD450
- OD450 [14]: 0.04 OD
- OD450 [15]: 0.05 OD450
- OD450 [16]: 0.1 OD450
- OD450 [17]: 0.06 OD450
- OD450 [18]: 0.52 OD
- OD450 [19]: 0.33 OD
- OD450 at 0.0001 nM [20]: 0.07 OD450
- OD450 at 0.001 nM [20]: 0.07 OD450
- OD450 at 0.01 nM [20]: 0.06 OD450
- OD450 at 0.1 nM [20]: 0.06 OD450
- OD450 at 1 nM [20]: 0.06 OD450
- OD450 at 10 nM [20]: 0.07 OD450
- OD450 at none (no antibody) [20]: 0.08 OD450

Substance: hIgG1 (human IgG1 subtype control of Example 1) (antibody)
- FACS fluorescence intensity [21]: 156
- FACS fluorescence intensity [22]: 59
- FACS fluorescence intensity [23]: 125
- OD450 nm [24]: 0.06
- FACS fluorescence intensity [25]: 59
- FACS fluorescence intensity [26]: 75
- FACS fluorescence intensity [27]: 85
- FACS fluorescence intensity [28]: 87
- FACS fluorescence intensity [29]: 75
- FACS fluorescence intensity [30]: 65
- FACS fluorescence intensity [31]: 84
- FACS fluorescence intensity [32]: 84
- FACS fluorescence intensity [33]: 93
- FACS fluorescence intensity [34]: 110
- FACS fluorescence intensity [35]: 116
- FACS fluorescence intensity [36]: 80
- FACS fluorescence intensity [37]: 74
- FACS fluorescence intensity [38]: 72
- FACS fluorescence intensity [39]: 127
- FACS fluorescence intensity [40]: 74
- FACS fluorescence intensity [41]: 74
- FACS fluorescence intensity [42]: 78
- FACS fluorescence intensity [43]: 76
- FACS fluorescence intensity [44]: 85
- FACS fluorescence intensity [45]: 85
